System: HrrA (phosphorylated response regulator) (Corynebacterium glutamicum ATCC 13032)
Test: EMSA
Conditions: 20 mM Tris-HCl pH 7.5, 50 mM KCl, 10 mM MgCl2, 5% glycerol, 0.5 mM EDTA, 0.005% Triton X-100, 20 min, room temperature, 10 nM DNA with 5-1000 nM HrrA …

Substance	Kd (apparent Kd)	Kd (apparent Kd (text misprints 270 μM))
PhmuO	196 nM	–
PctaE	125 nM	–
PcydA (Pcyd)	350 nM	–
PsigC/katA	–	271 nM

— article PMC7337898
